From patent US20250027068 come the findings set out here.

The labels stand for the following.
B1: PRT-167 (protein)
chain: MANQEIRYSEVTPYHVTSVWTKGVTPPTDFTQGEDVFHAPYKANQGWYDITKTFNGKDDLLCGAATAGNMLHWWFDQNKDQIKRYLEEHPEKQKINFNGEQMFDVKEAIDTKNSQLDSKLFEYFKEKAFPYLSTKHLGVFPDHVIDMFINGYRLSLTNHGPTPVKEGSKDPRGGIFDAVFTRGDQSKLLTSRHDFKEKNLKEISDLIKKELTEGKALGLSHTYANVRINHVINLWGADFDSNGNLKAIYVTDSDSNASIGMKKYFVGVNSAGKVAISAKEIKEDNIGAQVLGLFTLSTGQDSWNQTN
B2: PRT-169 (protein)
chain: B1 chain with S114D
B3: PRT-174 (protein)
chain: B1 chain with T28A, D29N, K42V, S114H, V268K, S270A, A271S, K282E, E283D, D284E
B4: PRT-173 (protein)
chain: B1 chain with T28A, D29N, K42V, S114H, V268K, S270A, A271S, K282E, E283G, D284E
B5: PRT-170 (protein)
chain: B1 chain with T31I, Q32K, N44H
B6: PRT-168 (protein)
chain: B1 chain with T28E
B7: PRT-171 (protein)
chain: B1 chain with T31I, Q32K, N44G
B8: PRT-172 (protein)
chain: B1 chain with T25K, T31I, Q32K, N44H
B9: PRT-96 (protein)
chain: MANQEIRYSEVTPYTVTSVWTKGVTPPADFTQGEDVFHAPYVANQGWYDITKTFNGKDDLLCGAATAGNMLHWWFDQNKEKIEAYLKKHPDKQKIMFGDQELLDVRKAINTKGDQTNSELFNYFRDKAFPGLSARRIGVMPDLVLDMFINGYYLNVYKTQTTDVNRTYQEKDRRGGIFDAVFTRGDQSKLLTSRHDFKEKNLKEISDLIKKELTEGKALGLSHTYANVRINHVINLWGADFDSEGNLKAIYVTDSDSNASIGMKKYFVGVNSAGKVAISAKEIKEDNIGAQVLGLFTLSTGQDSWNQTN
B10: PRT-101 (protein)
chain: B9 chain with T15H, D29K, A108V, R173K, E244N
B11: PRT-97 (protein)
chain: B9 chain with T15H, D29K, D91E, A108V, E244N
B12: PRT-100 (protein)
chain: B9 chain with T15H, D29K, A108V, G131N, E244N
B13: PRT-104 (protein)
chain: B9 chain with T15H, D29K, A108V, Y157T, E244N
B14: PRT-102 (protein)
chain: B9 chain with T15H, D29K, A108V, K211Q, E244N
B15: PRT-99 (protein)
chain: B9 chain with T15H, D29K, A108V, E244N, S304I
B16: PRT-98 (protein)
chain: B9 chain with T15H, D29K, A108V, I137L, E244N
B17: PRT-105 (protein)
chain: B9 chain with T15H, D29K, K81E, A108V, E244N
B18: PRT-103 (protein)
chain: B9 chain with T15H, D29K, A108V, D114S, E244N
B19: PRT-106 (protein)
chain: MRNATEAYAKEVPHQITSVWTKGVTPLTPEQFRYNNEDVIHAPYLAHQGWYDITKTFNGKDNLLCGAATAGNMLHWWFDQNKTEIEAYLSKHPEKQKIIFNNQELFDLKAAIDTKDSQTNSQLFNYFRDKAFPNLSARQLGVMPDLVLDMFINGYYLNVFKTQSTDVNRPYQDKDKRGGIFDAVFTRGDQTTLLTARHDLKNKGLNDISTLIKQELTEGRALALSHTYANVSISHVINLWGADFNAEGNLEAIYVTDSDANASIGMKKYFVGINASGKVAISAKKIEGENIGAQVLGLFTLSSGKDIWQKLS
B20: PRT-108 (protein)
chain: B19 chain with L27P, L45T, N58D, S276A, K278H
B21: PRT-109 (protein)
chain: B19 chain with Q15T, L45V, N58D, D207E, R220K, A260D, I273V, S276A
B22: PRT-107 (protein)
chain: B19 chain with H47N, T56A, N58D, D173T, L211I, R220K, I273V, S276A, K278H
B23: PRT-110 (protein)
chain: B19 chain with L27P, I40F, L45T, N58D, Q122A, G204T, L211I, A260S, I273V

Substitutions are numbered along the chain they refer to.

The target of the data set is pooled human IgG (human IgG1,2,3 and 4).
With B1, the Enzyme Activity Endpoint Assay: Fab'2 stood at 572 ng/µL, the Enzyme Activity Endpoint Assay: Fc stood at 161 ng/µL, the Enzyme Activity Endpoint Assay: IgG was 0 ng/µL and the Enzyme Activity Endpoint Assay: scIgG came to 0 ng/µL.

Turning to B2, the Enzyme Activity Endpoint Assay: Fab'2 came to 658 ng/µL, the Enzyme Activity Endpoint Assay: Fc worked out at 188 ng/µL, the Enzyme Activity Endpoint Assay: IgG amounted to 0 ng/µL and the Enzyme Activity Endpoint Assay: scIgG came to 0 ng/µL.

With B3, the Enzyme Activity Endpoint Assay: Fab'2 is 586 ng/µL, the Enzyme Activity Endpoint Assay: Fc worked out at 160 ng/µL, the Enzyme Activity Endpoint Assay: IgG amounted to 0 ng/µL and the Enzyme Activity Endpoint Assay: scIgG came out at 0 ng/µL.

Take B4: the Enzyme Activity Endpoint Assay: Fab'2 was 912 ng/µL, the Enzyme Activity Endpoint Assay: Fc was 226 ng/µL, the Enzyme Activity Endpoint Assay: IgG amounted to 0 ng/µL and the Enzyme Activity Endpoint Assay: scIgG amounted to 30 ng/µL.

Protein B5 had an Enzyme Activity Endpoint Assay: Fab'2 of 755 ng/µL, an Enzyme Activity Endpoint Assay: Fc of 193 ng/µL, an Enzyme Activity Endpoint Assay: IgG of 0 ng/µL and an Enzyme Activity Endpoint Assay: scIgG of 0 ng/µL.

As to B6, the Enzyme Activity Endpoint Assay: Fab'2 came out at 628 ng/µL, the Enzyme Activity Endpoint Assay: Fc came out at 159 ng/µL, the Enzyme Activity Endpoint Assay: IgG was determined as 0 ng/µL and the Enzyme Activity Endpoint Assay: scIgG is 0 ng/µL.

B7 yielded an Enzyme Activity Endpoint Assay: Fab'2 of 765 ng/µL, an Enzyme Activity Endpoint Assay: Fc of 187 ng/µL, an Enzyme Activity Endpoint Assay: IgG of 23 ng/µL and an Enzyme Activity Endpoint Assay: scIgG of 0 ng/µL.

B8: the Enzyme Activity Endpoint Assay: Fab'2 was determined as 821 ng/µL, the Enzyme Activity Endpoint Assay: Fc was 215 ng/µL, the Enzyme Activity Endpoint Assay: IgG is 0 ng/µL and the Enzyme Activity Endpoint Assay: scIgG was found to be 0 ng/µL.

For the protein B9, the Enzyme Activity Endpoint Assay: Fab′2 came out at 482 ng/µL, the Enzyme Activity Endpoint Assay: Fc amounted to 156 ng/µL, the Enzyme Activity Endpoint Assay: IgG was 0 ng/µL and the Enzyme Activity Endpoint Assay: scIgG came to 0 ng/µL.

As to B10, the Enzyme Activity Endpoint Assay: Fab′2 stood at 655 ng/µL, the Enzyme Activity Endpoint Assay: Fc was found to be 204 ng/µL, the Enzyme Activity Endpoint Assay: IgG worked out at 0 ng/µL and the Enzyme Activity Endpoint Assay: scIgG was found to be 0 ng/µL.

Take B11: the Enzyme Activity Endpoint Assay: Fab′2 turned out to be 524 ng/µL, the Enzyme Activity Endpoint Assay: Fc was 185 ng/µL, the Enzyme Activity Endpoint Assay: IgG is 0 ng/µL and the Enzyme Activity Endpoint Assay: scIgG was 0 ng/µL.

B12: the Enzyme Activity Endpoint Assay: Fab′2 was determined as 513 ng/µL, the Enzyme Activity Endpoint Assay: Fc came out at 178 ng/µL, the Enzyme Activity Endpoint Assay: IgG is 0 ng/µL and the Enzyme Activity Endpoint Assay: scIgG came to 0 ng/µL.

In the case of B13, the Enzyme Activity Endpoint Assay: Fab′2 amounted to 259 ng/µL, the Enzyme Activity Endpoint Assay: Fc amounted to 130 ng/µL, the Enzyme Activity Endpoint Assay: IgG is 0 ng/µL and the Enzyme Activity Endpoint Assay: scIgG came out at 0 ng/µL.

For the protein B14, the Enzyme Activity Endpoint Assay: Fab′2 came to 607 ng/µL, the Enzyme Activity Endpoint Assay: Fc stood at 160 ng/µL, the Enzyme Activity Endpoint Assay: IgG was found to be 0 ng/µL and the Enzyme Activity Endpoint Assay: scIgG stood at 0 ng/µL.

On to B15, for which the Enzyme Activity Endpoint Assay: Fab′2 worked out at 489 ng/µL, the Enzyme Activity Endpoint Assay: Fc turned out to be 152 ng/µL, the Enzyme Activity Endpoint Assay: IgG stood at 0 ng/µL and the Enzyme Activity Endpoint Assay: scIgG was 0 ng/µL.

Turning to B16, the Enzyme Activity Endpoint Assay: Fab′2 is 592 ng/µL, the Enzyme Activity Endpoint Assay: Fc worked out at 180 ng/µL, the Enzyme Activity Endpoint Assay: IgG amounted to 0 ng/µL and the Enzyme Activity Endpoint Assay: scIgG turned out to be 0 ng/µL.

Turning to B17, the Enzyme Activity Endpoint Assay: Fab′2 stood at 663 ng/µL, the Enzyme Activity Endpoint Assay: Fc worked out at 192 ng/µL, the Enzyme Activity Endpoint Assay: IgG was 0 ng/µL and the Enzyme Activity Endpoint Assay: scIgG is 13 ng/µL.

In turn, B18 registered an Enzyme Activity Endpoint Assay: Fab′2 of 544 ng/µL, an Enzyme Activity Endpoint Assay: Fc of 158 ng/µL, an Enzyme Activity Endpoint Assay: IgG of 0 ng/µL and an Enzyme Activity Endpoint Assay: scIgG of 0 ng/µL.

Protein B19 returned an Enzyme Activity Endpoint Assay: Fab′2 of 739 ng/µL, an Enzyme Activity Endpoint Assay: Fc of 202 ng/µL, an Enzyme Activity Endpoint Assay: IgG of 0 ng/µL and an Enzyme Activity Endpoint Assay: scIgG of 0 ng/µL.

Consider B20, for which the Enzyme Activity Endpoint Assay: Fab′2 worked out at 666 ng/µL, the Enzyme Activity Endpoint Assay: Fc worked out at 203 ng/µL, the Enzyme Activity Endpoint Assay: IgG came to 0 ng/µL and the Enzyme Activity Endpoint Assay: scIgG worked out at 0 ng/µL.

The protein B21 had an Enzyme Activity Endpoint Assay: Fab′2 of 457 ng/µL, an Enzyme Activity Endpoint Assay: Fc of 181 ng/µL, an Enzyme Activity Endpoint Assay: IgG of 28 ng/µL and an Enzyme Activity Endpoint Assay: scIgG of 0 ng/µL.

As to B22, the Enzyme Activity Endpoint Assay: Fab′2 came to 553 ng/µL, the Enzyme Activity Endpoint Assay: Fc is 200 ng/µL, the Enzyme Activity Endpoint Assay: IgG was 0 ng/µL and the Enzyme Activity Endpoint Assay: scIgG came to 117 ng/µL.

For the protein B23, the Enzyme Activity Endpoint Assay: Fab′2 is 575 ng/µL, the Enzyme Activity Endpoint Assay: Fc stood at 136 ng/µL, the Enzyme Activity Endpoint Assay: IgG worked out at 0 ng/µL and the Enzyme Activity Endpoint Assay: scIgG turned out to be 0 ng/µL.
